Source: patent publication US20190151483A1, “METHODS OF MAKING 18F-LABELED PRECURSORS AND PEPTIDES, LABELED C-MET BINDING PEPTIDES, AND METHODS OF USE THEREOF” (The United States of America, as Represented by the …, priority 2016, published 2019)
Bridge positions count the residues as written; N and C are the ends. Ends that are not written are not given here.

Columns and labels:
c-MET receptors = target: T1, c-MET receptors (Homo sapiens, UniProt P08581); assay: In vitro saturation binding assay with MKN-45, SNU-16 or U87-MG cells
T1 construct: endogenous in cells; host or cells: MKN-45, SNU-16 or U87-MG cells
T1 sequence (P08581 25-1390): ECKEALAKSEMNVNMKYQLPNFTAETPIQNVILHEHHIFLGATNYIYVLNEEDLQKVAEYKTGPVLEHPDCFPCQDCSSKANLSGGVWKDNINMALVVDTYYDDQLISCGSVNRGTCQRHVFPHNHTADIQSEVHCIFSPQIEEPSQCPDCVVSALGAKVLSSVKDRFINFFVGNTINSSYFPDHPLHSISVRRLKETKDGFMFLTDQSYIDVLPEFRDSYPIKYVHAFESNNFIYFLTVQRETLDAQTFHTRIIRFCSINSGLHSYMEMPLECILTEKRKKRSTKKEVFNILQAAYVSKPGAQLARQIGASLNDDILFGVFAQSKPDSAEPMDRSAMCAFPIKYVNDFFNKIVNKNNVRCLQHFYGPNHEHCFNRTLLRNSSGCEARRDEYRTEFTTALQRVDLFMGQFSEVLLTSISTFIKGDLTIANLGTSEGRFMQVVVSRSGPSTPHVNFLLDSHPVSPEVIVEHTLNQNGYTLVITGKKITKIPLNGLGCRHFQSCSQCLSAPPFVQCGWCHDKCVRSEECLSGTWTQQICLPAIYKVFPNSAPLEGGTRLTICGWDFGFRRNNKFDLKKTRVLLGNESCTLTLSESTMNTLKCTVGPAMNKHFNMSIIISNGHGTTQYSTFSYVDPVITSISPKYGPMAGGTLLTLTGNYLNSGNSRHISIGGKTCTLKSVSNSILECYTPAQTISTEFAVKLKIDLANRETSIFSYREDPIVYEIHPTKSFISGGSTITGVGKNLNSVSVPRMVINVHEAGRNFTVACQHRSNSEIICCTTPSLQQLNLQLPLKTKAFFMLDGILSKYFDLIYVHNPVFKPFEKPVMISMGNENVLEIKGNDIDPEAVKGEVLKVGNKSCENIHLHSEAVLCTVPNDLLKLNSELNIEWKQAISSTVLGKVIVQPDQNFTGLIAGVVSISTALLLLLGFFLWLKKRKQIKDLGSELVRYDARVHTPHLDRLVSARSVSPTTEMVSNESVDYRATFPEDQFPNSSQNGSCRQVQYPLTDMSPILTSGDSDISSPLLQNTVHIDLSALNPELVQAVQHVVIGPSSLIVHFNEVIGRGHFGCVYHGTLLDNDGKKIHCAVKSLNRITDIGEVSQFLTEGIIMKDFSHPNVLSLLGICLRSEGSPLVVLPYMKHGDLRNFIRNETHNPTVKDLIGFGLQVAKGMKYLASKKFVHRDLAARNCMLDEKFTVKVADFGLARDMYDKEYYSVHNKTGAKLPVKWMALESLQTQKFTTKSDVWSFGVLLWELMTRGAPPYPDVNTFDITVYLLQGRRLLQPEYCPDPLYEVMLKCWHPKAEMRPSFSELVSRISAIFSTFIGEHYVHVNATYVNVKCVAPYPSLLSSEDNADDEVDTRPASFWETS
Protocol: In vitro saturation assays were performed to determine the binding affinity of Compound 1 for c-MET receptors. Increasing concentrations of Compound 1 were incubated with MKN-45, SNU-16 or U87-MG cells. Non-specific binding was determined in the presence of an unlabeled Met peptide (10^−5 M). Bound peptide was separated from free peptide and the radioactive content was determined. Data was analyzed using a one site binding hyperbola. […] The binding constant was determined to be 3.9 nM. In addition, the estimated Met expression levels (2.4×10^6 receptors per cell) were consistent with known expression in MKN-45, SNU-16, and U87-MG cells. […] (data not shown)

[1] = tested on: SNU-16 (moderate Met) xenografts; assay type: in vivo, mouse
[2] = tested on: U87-MG (low Met) xenografts; assay type: in vivo, mouse
[3] = tested on: MKN-45 (high Met) xenografts
[4] = tested on: human prostate cancer cells with known high PSMA expression; assay: In vivo biodistribution and PET images in xenograft mouse models of high-PSMA prostate tumor cell line; conditions: data not shown
[5] = reported labeled albumin; cited from earlier work

**Q.** For “Compound 1: 18F-labeled c-Met peptide; cyclic peptide of SEQ ID NO: 1 reacted with [18F]fluoronicotinic acid-2,3,5,6-tetrafluorophenyl ester (AGSCYCSGPPRFECWCYETEGTGGGK; disulfide 6-14, 4-16; also: [18F]fluoronicotinoyl conjugated via tetrafluorophenyl ester, site not given here)”, which “specific binding to Met” value (c-MET receptors; MKN-45 cells, non-specific binding with unlabeled Met peptide 10^−5 M) is on record?
**A.** > 90%

**Q.** What about the Kd (c-MET receptors; MKN-45 cells, saturation assay, one site binding hyperbola, read-out: binding constant) of the same molecule?
**A.** 3.9 nM

**Q.** What about the “ability to distinguish c-MET concentrations” value (c-MET receptors; SNU-16 and U87-MG cell lines, data not shown) of the same molecule?
**A.** can distinguish c-MET concentrations

**Q.** What about the “estimated Met expression levels” value (c-MET receptors; from saturation binding) of the same molecule?
**A.** 2.4×10^6 receptors per cell

**Q.** What about the PET tumor discernibility ([1]; SNU-16 tumors) of the same molecule?
**A.** discernable

**Q.** What about the “Tumor:Muscle ratio over time course” value ([1]; mouse, in vivo) of the same molecule?
**A.** 7:1-18:1

**Q.** What about the “fold decrease of T:M vs MKN-45 T:M” value ([1]; mouse, in vivo) of the same molecule?
**A.** 2-60 fold

**Q.** What about the “fold decrease of tumor uptake vs MKN-45 tumors” value ([1]; mouse, in vivo) of the same molecule?
**A.** 2-6 fold

**Q.** And the PET tumor discernibility ([2]; U87-MG tumors)?
**A.** more difficult to distinguish

**Q.** And the “Tumor:Muscle ratio over time course” value ([2]; mouse, in vivo)?
**A.** 3:1-5:1

**Q.** And the “fold decrease of tumor uptake vs MKN-45 tumors” value ([2]; mouse, in vivo)?
**A.** 3-40 fold

**Q.** And the PET visualization ([3]; MKN xenografts, 30 to 120 min post-injection)?
**A.** tumors, kidneys and bladder could be visualized

**Q.** And the PET tumor discernibility ([3]; MKN-45 and SNU-16 xenografts, images at 30, 60, 120 min)?
**A.** discerned as early as 30 min

**Q.** What about the “decrease of T:M ratio on blocking with unlabeled Met peptide” value ([3]; MKN-45 xenografts, compared to unblocked) of the same molecule?
**A.** 65%

**Q.** What about the “decrease of tumor uptake from 30 to 120 min” value ([3]; mouse, in vivo) of the same molecule?
**A.** approximately 37%

**Q.** What about the “tumor retention and non-target clearance” value ([3]; mouse, in vivo) of the same molecule?
**A.** highly retained in MKN-45 tumors (high Met expression) and rapidly cleared from non-target tissue

**Q.** For `O=C(O)CC[C@H](NC(=O)N[C@@H](CCCCNC(=O)c1ccc([18F])nc1)C(=O)O)C(=O)O` [[^18F]DCFPyL], which “biodistributions and PET images vs previously reported results” value [4] is on record?
**A.** comparable with previously reported results

B1: [^18F]albumin: albumin radiolabeled by conjugating Compound 3 to pendant amine groups (protein, UniProt P02770 25-608, looked up)
Albumin: EAHKSEIAHRFKDLGEQHFKGLVLIAFSQYLQKCPYEEHIKLVQEVTDFAKTCVADENAENCDKSIHTLFGDKLCAIPKLRDNYGELADCCAKQEPERNECFLQHKDDNPNLPPFQRPEAEAMCTSFQENPTSFLGHYLHEVARRHPYFYAPELLYYAEKYNEVLTQCCTESDKAACLTPKLDAVKEKALVAAVRQRMKCSSMQRFGERAFKAWAVARMSQRFPNAEFAEITKLATDVTKINKECCHGDLLECADDRAELAKYMCENQATISSKLQACCDKPVLQKSQCLAEIEHDNIPADLPSIAADFVEDKEVCKNYAEAKDVFLGTFLYEYSRRHPDYSVSLLLRLAKKYEATLEKCCAEGDPPACYGTVLAEFQPLVEEPKNLVKTNCELYEKLGEYGFQNAVLVRYTQKAPQVSTPTLVEAARNLGRVGTKCCTLPEAQRLPCVEDYLSAILNRLCVLHEKTPVSEKVTKCCSGSLVERRPCFSALTVDETYVPKEFKAETFTFHSDICTLPDKEKQIKKQTALAELVKHKPKATEDQLKTVMGDFAQFVDKCCKAADKDNCFATEGPNLVARSKEALA
modifications: 18F-labeled via Compound 3
notes: albumin radiolabeled by conjugating Compound 3 to pendant amine groups
**Q.** Which “blood pool imaging property” value [5] does the source give for B1 here?
**A.** excellent blood pool imaging property
